Experimental data reported in patent publication US7875275B2, “Use of Bridge-1 and activators and inhibitors thereof in the treatment of insulin deficiency and diabetes” (The General Hospital Corporation, priority 2004, dated 2011).
One block for each molecule: values may come before it.

How the values were obtained:
[1] = biological target: T1, Bridge-1 (Gal4 DBD-Bridge-1) (Rattus norvegicus, UniProt Q9WTV5); assay: Gal4-Bridge-1 transactivation assay in BHK cells (Gal4-luciferase reporter); type: cell-based
T1 construct: excision of full-length rat Bridge-1 cDNA from the previously reported Gal4-Bridge-1 (pM-Bridge-1) vector; expressed in transfected cells; host or cells: BHK cells (BHK-21 C-13), transient transfection
Protocol: FIG. 17 (a-d). The coactivator Bridge-1 interacts with multiple domains of p300. (a) Trichostatin A increases transcriptional activation by Bridge-1. BHK cells were transfected in duplicate with 1.5 μg Gal4-Bridge-1 or empty Gal4 expression vector, 3.25 μg pBluescript, and 250 ng of a Gal4-luciferase reporter and treated with vehicle (0), 2, or 4 ng/mL trichostatin A for 24 hours. Results shown are the mean+/−SEM relative luciferase activity of Gal4-Bridge-1 normalized to the empty Gal4 expression vector (n=3-5 transfections). (b) p300 increases the transcriptional activation by Bridge-1. BHK cells were transfected in duplicate with 0-3 μg of the p300 expression vector pCMV-p300 and 0.5 μg Gal4-Bridge-1 or empty Gal4 expression vector and 1 μg of a Gal4-CAT reporter. pBluescript was used to normalize the total DNA content for all conditions. Data shown are the mean of two transfections. (c) Bridge-1 directly interacts with p300. GST-Bridge-1 or GST control proteins were incubated with in vitro translated, radiolabeled [^35S]-p300 in GST protein interaction assays. A representative autoradiogram is shown of an SDS polyacrylamide gel from a GST pull-down protein interaction assay with the migration position of [^35S]-p300 designated (arrow). (d) Bridge-1 interacts with multiple domains within p300. […]
Various compounds were assayed for their ability to activate or inhibit Bridge-1 transactivation function. In these experiments, the transactivation assay previously described (Thomas, M. K. et al., Mol. Cell. Biol. 19(12):8492-8504 (1999)) incorporated herein by reference) was used with the modification that the plasmid reporter was a Gal4 luciferase reporter with luciferase activity measured rather than the Gal4CAT reporter used in 1999. […]
(§1) Cell culture and transfections. […] Transfections were conducted with Lipofectamine or Lipofectamine 2000 (Invitrogen Life Technologies) according to published methods (Thomas, M. K., et al., Molec. Cell. Biol. 19:8492-8504 (1999). Yeast transcriptional activation assays were conducted as previously reported (Thomas, M. K., et al., supra; Golemis, E. A., et al., Current Protocols in Molecular Biology, Ausubel, F. M., et al., eds., John Wiley and Sons, pp. 13.14.1-13.14.17 (1994)) with quantitative LexA-operator responsive beta-galactosidase reporter assays as outlined by the manufacturer (BD Biosciences Clontech, Palo Alto, Calif.).

Gal4-Bridge-1 = biological target: T2, Gal4-Bridge-1 (UniProt P04386+Q9WTV5); assay: Gal4-Bridge-1 transcriptional activation of Gal4-CAT reporter in BHK cells; type: cell-based, rat; conditions: 0-3 μg pCMV-p300 expression vector
T2 construct: excision of full-length rat Bridge-1 cDNA from the previously reported Gal4-Bridge-1 (pM-Bridge-1) vector; expressed in transfected cells; host or cells: BHK cells (BHK-21 C-13), transient transfection
Protocol: FIG. 17 (a-d). The coactivator Bridge-1 interacts with multiple domains of p300. (a) Trichostatin A increases transcriptional activation by Bridge-1. BHK cells were transfected in duplicate with 1.5 μg Gal4-Bridge-1 or empty Gal4 expression vector, 3.25 μg pBluescript, and 250 ng of a Gal4-luciferase reporter and treated with vehicle (0), 2, or 4 ng/mL trichostatin A for 24 hours. Results shown are the mean+/−SEM relative luciferase activity of Gal4-Bridge-1 normalized to the empty Gal4 expression vector (n=3-5 transfections). (b) p300 increases the transcriptional activation by Bridge-1. […]
as §1

PDX-1 Bait = biological target: T3, PDX-1 Bait (Rattus norvegicus, UniProt P52947); assay: Semiquantitative yeast two-hybrid interaction trap assay; type: binding; design: key: ++: growth on leucine dropout plates and intense blue colonies on X-gal plates; −: no growh on leucine dropout plates and white colonies on X-gal plates; conditions: LexA-rat PDX-1 amino acids 160-283 bait, LEU2 and lacZ reporters
T3 construct: A LexA-rat PDX-1 bait fusion protein construct consisting of PDX-1 amino acids 160-283 cloned in the vector pEG202; expressed in transfected cells
Protocol: Yeast interaction trap assays. Semiquantitative yeast two-hybrid interaction trap assays were conducted as previously reported (Golemis et al., 1994; Thomas et al., 1999). A LexA-rat PDX-1 bait fusion protein construct consisting of PDX-1 amino acids 160-283 cloned in the vector pEG202 and an acidic domain-rat Bridge-1 fusion protein construct cloned in the vector pJG4-5 were independently tested for activation of LexA operator-responsive LEU2 or β-galactosidase (lacZ) reporters in yeast. Interactions of E12 with rat Twist and rat inhibitor of differentiation-3 (Id3) proteins were used as positive controls and interactions of Bridge-1 with the human interleukin-1 receptor or D. melanogaster bicoid proteins were used as negative controls for the assays (Thomas et al., 1999). Fusion protein interactions were measured independently by growth on leucine dropout plates as a measure of LEU reporter activation or by blue color intensity with growth for 72 hours at 30° C. on X-Gal (5-bromo-4-chloro-3-indoyl-β-D-galactopyranoside) plates as a measure of lacZ reporter activation.
We assessed whether Bridge-1 interacts with PDX-1 in a yeast two-hybrid interaction trap system. […] Thus the rat Bridge-1 protein interacts with a carboxy-terminal PDX-1 protein fragment in yeast cells.

[2] = Gal4-luciferase reporter, 24 hours incubation, vs vehicle

T3 sequence (P52947 160-283): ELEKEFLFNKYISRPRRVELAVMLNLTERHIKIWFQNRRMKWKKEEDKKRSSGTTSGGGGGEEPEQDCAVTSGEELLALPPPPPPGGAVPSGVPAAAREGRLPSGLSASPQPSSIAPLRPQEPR
T1 sequence (Q9WTV5 with tags, fused parts or gaps): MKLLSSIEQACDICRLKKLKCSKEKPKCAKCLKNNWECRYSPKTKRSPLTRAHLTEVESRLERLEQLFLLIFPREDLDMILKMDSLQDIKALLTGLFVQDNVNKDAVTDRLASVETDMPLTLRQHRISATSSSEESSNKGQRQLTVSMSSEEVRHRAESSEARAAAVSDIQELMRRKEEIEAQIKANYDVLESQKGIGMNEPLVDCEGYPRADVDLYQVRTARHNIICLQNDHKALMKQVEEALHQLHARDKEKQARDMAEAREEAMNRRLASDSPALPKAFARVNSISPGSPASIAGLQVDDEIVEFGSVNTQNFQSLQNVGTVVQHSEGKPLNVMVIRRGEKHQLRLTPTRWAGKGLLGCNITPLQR
T2 sequence (P04386+Q9WTV5 fused): as the sequence (Q9WTV5 with tags, fused parts or gaps) above

Molecule: CC(=O)[C@H]1CC[C@H]2[C@@H]3CCC4=CC(=O)CC[C@]4(C)[C@H]3CC[C@]12C [Progesterone]
inhibition of Bridge-1 transactivation function [1, 2]: 22%

Molecule: Activin A
activation of Bridge-1 transactivation function [1, 2]: 2.34 fold

B1: Bridge-1: rat PDZ-domain transcriptional coactivator, acidic domain fusion in pJG4-5 (protein)
chain: MSSEEVRHRAESSEARAAAVSDIQELMRRKEEIEAQIKANYDVLESQKGIGMNEPLVDCEGYPRADVDLYQVRTARHNIICLQNDHKALMKQVEEALHQLHARDKEKQARDMAEAREEAMNRRLASDSPALPKAFARVNSISPGSPASIAGLQVDDEIVEFGSVNTQNFQSLQNVGTVVQHSEGKPLNVMVIRRGEKHQLRLTPTRWAGKGLLGCNITPLQR
modifications: left off: small tags and cut ends
Interaction with PDX-1 Bait (PDX-1 Bait): ++

B3: Id3: rat inhibitor of differentiation-3 protein, control in yeast interaction trap assay (protein)
chain: MKALSPVRGCYEAVCCLSERSLAIARGRGKSPSAEEPLSLLDDMNHCYSRLRELVPGVPRGTQLSQVEILQRVIDYILDLQVVLAEPAPGPPDGPHLPIQTAELTPELVISKDKRSFCH
Interaction with PDX-1 Bait (PDX-1 Bait): −

The next lines start with results.

activation of Bridge-1 transactivation function [1, 2]: 2.7 fold
Molecule: CC(/C=C/C(=O)NO)=C\[C@@H](C)C(=O)c1ccc(N(C)C)cc1 [Trichostatin A]
effect on transcriptional activation by Bridge-1 ([1]; 2 or 4 ng/mL for 24 hours): increased the transcriptional activation by Bridge-1 in a dose-dependent manner

increase of reporter activation by Gal4-Bridge-1 (Gal4-Bridge-1): over 70 fold
Molecule: p300: histone acetyltransferase and nuclear receptor coactivator, expressed from pCMV-p300 vector

Interaction with PDX-1 Bait (PDX-1 Bait): −
B2: Twist: rat Twist protein, control in yeast interaction trap assay (protein)
chain: MMQDVSSSPVSPADDSLSNSEEEPDRQQPASGKRGARKRRSSRRSAGGSAGPGGATGGGIGGGDEPGSPAQGKRGKKSAGGGGGAGGGGGGGGSSSGGGSPQSYEELQTQRVMANVRERQRTQSLNEAFAALRKIIPTLPSDKLSKIQTLKLAARYIDFLYQVLQSDELDSKMASCSYVAHERLSYAFSVWRMEGAWSMSASH
